{"source": "a protein production outcome set (Wang et al. 2014)", "assay": "label from the status in PepcDB records"}
{"sequence": "MKQFVVISGKGGTGKTSVTAGLAAVGKDMVLADCDVDAADLHLVLAPEIRERHDFISGVVASIEPEACISCGLCTTHCRYGAIPQGYAPQVAPEHCEGCGVCAHVCPTGAARLSDRRCGEWYVSDTRFGPMVHAALGIGEENSGKLVSTVRTRARELAEARDASVVLIDGSPGVGCPVIASLAGADAALAVTEPTVSALHDLERVHALARHFDVRMAVLLNKADIHPGMAERIIGYCTTHDLPLVGRFGFSPLFVQAQLEGRTLPEQDSGEWRQRFNGVWNQLLALVLEHHHHHH", "values": [{"measurement": "protein production", "value": "failed"}]}
{"sequence": "MFQDVLVITVAVGRGGDGAVSFRREKFVPKGGPDGGDGGRGGSVYLRARGSVDSLSRLSKRTYKAEDGEHGRGSQQHGRGGEDLVIEVPRGTRVFDADTGELLADLTEEGQTVLVARGGAGGRGNMHFVSPTRQAPRFAEAGEEGEKRRLRLELMLIADVGLVGYPNAGKSSLLAAMTRAHPKIAPYPFTTLSPNLGVVEVSEEERFTLADIPGIIEGASEGKGLGLEFLRHIAGTRVLLYVLDAADDPFKTLKTLRKKVWAYDPGLLGRPSLVALNKVDLLEKEAVKALADALAREGLAVLPVSALTGAGLPALKEALHALVRSTPPPEMPKPVPRKEVQAGVEVVPVAEGVYEVRAPEVERYLARIKGDLMEAAGYLQEVFRRQGVEAALRAKGVRAGDLVRIGGLEFEYIPEV", "values": [{"measurement": "protein production", "value": "not failed"}]}
{"sequence": "MIPVTSFRGKKVALFGLGGSGLVTARALVAGGAAVVAFDDNPDSVAKAQAEGIATADLHTIDWSSFSSFVLAPGVPLTHPKPHWSVDLAKAAGVEVIGDIELFIRERRVHAPDCPFIAITGTNGKSTTTALIAHILQSSGRDTQLGGNIGTAVLSLDPPKAQRFYVVECSSYQIDLAPTINPTAGILLNLTPDHLDRHGTMQHYADVKERLVAGSGTAIVGVDDSHSTLIADRIERAGVKVERISKRNVVSEGLYAEGSQILRAHGGTSSLLVDLDGIQTLRGSHNAQNAAAAIAACLAVGVSEEEIRAGLKSFPGLKHRMQPVGRRGNVTFVNDSKATNADAAAPALSSFDRIYWIAGGLPKAGGITSLSPLFPRIAKAYLIGEAAAEFAATLGEAVPYEISGTLDKAVQHAAADAEKDATAGNVVMLSPACASFDQYKNFEIRGDSFVAQVAALEGMTMLVHSGKGG", "values": [{"measurement": "protein production", "value": "failed"}]}
{"sequence": "SKSSEKRQAVDTAVDGVFIRSLKVNCKVTSRFAHYVVTSQVVNTANEAREVAFDLEIPKTAFISDFAVTADGNAFIGDIKDKVTA", "values": [{"measurement": "protein production", "value": "failed"}]}
{"sequence": "MTEILPHVNDEVLPAEYELNQPEPEHCPGPESDMAGKSDACGGCANKEICESLPKGPDPDIPLITDNLSGIEHKILVLSGKGGVGKSTFAAMLSWALSADEDLQVGAMDLDICGPSLPHMLGCIKETVHESNSGWTPVYVTDNLATMSIQYMLPEDDSAIIWRGSKKNLLIKKFLKDVDWDKLDYLVIDTPPGTSDEHISINKYMRESGIDGALVVTTPQEVALLDVRKEIDFCKKAGINILGLVENMSGFVCPNCKGESQIFKATTGGGEALCKELGIKFLGSVPLDPRIGKSCDMGESFLDNYPDSPASSAVLNVVEALRDAVGDV", "values": [{"measurement": "protein production", "value": "failed"}]}
{"sequence": "MDKTKTFCKASLVSIALVLLLVSSAALAATENDTGNATIKDDYVSSTAMANTEGSSLPKVTETQITTSGFHPAIYGNRIVWTDYHDEECNIYMYDLSTKKETQITTSGDVSGSDIYGNRIVWSNYVYPNEVYMYDLSTSQKSTISGYNSYVDSLSIYGDKVVWGDSLDDYVSIFMHDLSTKEETLLTYDAYNPAIYGNRIVWEDRFDDNIYMYDISTKKQTRITNGGAADDPAIYGNRIVYASTHDGNTDIYMYDLSTKKQTQITSSPDAQTHPAIYGNRIVWEDDGGEDDGYTNHGIYMYDISTNQKMKISTKGSAYSPTIYGNNIVWEYYNNENGKLRNLHGHYFRTKTEPSYCCILCIPNFRKNTIKSYFY", "values": [{"measurement": "protein production", "value": "failed"}]}
{"sequence": "MKNKKNNYDLMYFIPLVFLIYPIGGILYYHYPFWTLFFTLAFVGAYLYSVIIRGESKYHMIAWSTMLTYIFYMTIFINSGFIWYIYFLSNLLVYRFRDKLKSFRFISFACTLATVVFLCFFKASDFGDRIMFLIVPIFCIGYMWIAIENRNSEEQREKIAEQNQYINILSAENERNRIGRDLHDSLGHTFAMMTLKTELALKLLEKRNYDKVQKELSELNHISHQSMSEVRQIVSNLKYRTVVEEIDELYRLFQLSNIKLTVVNKLETSQLSPVTQSTITMILKELSNNIVKHAEADSVELSLVRQGATINIEMIDNGCGFTNLDGDELHSIQERLTIVEGTLTILSRSKPTHIQVVLKEV", "values": [{"measurement": "protein production", "value": "failed"}]}
{"sequence": "MTHIIIDGDACPVVDSIIDLTTETGIFVTIIRSFSHFSNQLYPPHVSTLYVDDGPDAVDYKIVQLSTKDDIVVTQDYGLASLLVDKVLIVMHHNGKIYNSKNIQQLLDKRYINAQIRKQGGRHKGPPPFTKQDQKVFEQSLLKVIHRIKELDLEHHHHHH", "values": [{"measurement": "protein production", "value": "not failed"}]}
{"sequence": "LKKLPAEIYLIDEQAKTSVQDFEYASYYHSSATVNTGTFNECRSADLVLFFQEEMSNESFSNEDNLALIKEKVKKMMATGFQGIVLVATAESNIVASLIKHFSGLPANQIITPG", "values": [{"measurement": "protein production", "value": "failed"}]}
{"sequence": "MAHSPLVSIVVPAHNAEATLARALDCLLDQEIVDWEAVIVDDASTDRTPAIIAGYVEHDARFRTLRSSTSSAAGARNSGISTARGHWLMFLDADDWVDASFLAKMLAALKAAPDAVAAYCGSRRVMPDGELTPSSISTEVAIQPFETFARQCAIRTHALLVDREAIVGLGGFDVSLRTCENWDLWQRLAHLGKRWVMVDEPLAFYRVSPNSLSRNSTQMLADAEIVIARGFSADPRVSHPASGQANGAISANGGTASEALAWFALWNAASDCGRGSRSIDPQALRALPAGRKWAREIAEVAIDGLMVGSLSVPAQLAARWGRFGGPLTELIIELGKVWDNPAAGRRVQYQLEQMLLDADDLAAPRRLARTLGIRVDVRNPNAIELPEGIDRIYAYLMMDGQIEAVVQFGVLGTVTRDHWIELIQNVVPAERLADSTARLAGRSTVPQEGAGADTSNTFAAEALLFTAERRSDPDSHFGKLAQLTAEARELVRSSAEPEQPPAVPRRARAADTNDRTAFWNSYFATEDPWNYGSLYEQEKYQRQLEILPAGPIGRVLELACAEGHFTRQLAPRVSHLTATDISAIAIERARARCGDQPNIEFGVLDFAADMLPGEMDLIVCSEVLYYLDDLADLRRITKKFTEALAPGGSFITAHAFVLRDNVERTGFDWNTFGAQAISETLAATEGLVLEQSIQTELYRIDRFRRLSPDDLVTEPMIDHAPIRAQIEIGVARNIIWGGARALRRDVARNEQRQRVPVLMYHSVSDDGPAALARFRLTPAGFGSQMAWLRANGFHAINSEQLEGCIANRQPFVGRPVLITFDDGFQNFADHAWPTLRANDLTAEVFLVTDLVGKGAQWDAHNGPPTQLMDAGTVRRLAGEGAFFGSHMATHRAIDGLSSSDLAAELLRSRMFIERWTGRPTTAFTAPFSVTDRRLGRLARECGYRIGFGARHGPADLDCDLIDLPRIEIRGDRSLDDFVATVEAVLKER", "values": [{"measurement": "protein production", "value": "failed"}]}
{"sequence": "MSLVLMAQATKPEQLQQLQTTYPDWTFKDAAAVTAADYDQIEVMYGNHPLLKTILARPTNQLKFVQVISAGVDYLPLKALQAAGVVVANTSGIHADAISESVLAAMLSVVRGYHAAWLNQRGARQWALPMTTSTLTGQQLLIYGTGQIGQSLAAKASALGMHVIGVNTTGHPADHFHETVAFTATADALATANFIVNALPLTPTTHHLFSTELFQQTKQQPMLINIGRGPAVDTTALMTALDHHQLSMAALDVTEPEPLPTDHPLWQRDDVLITPHISGQIAHFRATVFPIFAANFAQFVKDGTLVRNQVDLNRGYEGHHHHHH", "values": [{"measurement": "protein production", "value": "not failed"}]}
{"sequence": "MTYCLGVKLKDGLVAIADTRITSGTDTTTAKKLFVHESAHGSLFLMTSGLRSVRDKAITYFKEVLKDEHVVYNQLYEAVNAFGNQLRRVAEEDRKALYAAGFAFNLHTIVGGQLKNDEEPKMFLLYPEGNWIELTQTSPFMIIGNSGYGKPILNRTVKYESTLEEVLKAGFLSFDSTRVSANDVDFPLDVVVYYNNSFKMIEHRFEKKDMEIISTTWDNQLKQALDSVPEEWMNVVFDRKNVLLEHHHHHH", "values": [{"measurement": "protein production", "value": "failed"}]}
{"sequence": "MLKLGVIGTGAISHHFIEAAHTSGEYQLVAIYSRKLETAATFASRYQNIQLFDQLEVFFKSSFDLVYIASPNSLHFAQAKAALSAGKHVILEKPAVSQPQEWFDLIQTAEKNNCFIFEAARNYHEKAFTTIKNFLADKQVLGADFNYAKYSSKMPDLLAGQTPNVFSDRFAGGALMDLGIYPLYAAVRLFGKANDATYHAQQLDNSIDLNGDGILFYPDYQVHIKAGKNITSNLPCEIYTTDGTLTLNTIEHIRSAIFTDHQGNQVQLPIQQAPHTMTEEVAAFAHMIQQPDLNLYQTWLYDAGSVHELLYTMRQTAGIRFEAEK", "values": [{"measurement": "protein production", "value": "not failed"}]}
{"sequence": "MVAACKTMLTQIYEVATPAEAEAISVIGVDHVGVLVGDGAFPRELPVQKALAVMKMVRAPSVVSALFLSADVALIERMARELDPPIVHLGASSELLTPDLVVALRKSLPKTKFMRSVPVTGPEAVGVAQAYDGVVDWILLDSHRTGDVQIGAQGVTHDWSISRTIVESVRTPVILAGGLGPDNVKEAIRSVRPAGVDSKTRTDREGTHSKDLRKVEAFYRAATSG", "values": [{"measurement": "protein production", "value": "failed"}]}
{"sequence": "GHFPRACVSSKNLMEKECCPPWSGDRSPCGQLSGRGSCQNILLSNAPLGPQFPFTGVDDRESWPSVFYNRTCQCSGNFMGFNCGNCKFGFWGPNCTERRLLVRRNIFDLSAPEKDKFFAYLTLAKHTISSDYVIPIGTYGQMKNGSTPMFNDINIYDLFVWMHYYVSMDALLGGSEIWRDIDFAHEAPAFLPWHRLFLLRWEQEIQKLTGDENFTIPYWDWRDAEKCDICTDEYMGGQHPTNPNLLSPASFFSSWQIVCSRLEEYNSHQSLCNGTPEGPLRRNPGNHDKSRTPRLPSSADVEFCLSLTQYESGSMDKAANFSFRNTLEGFASPLTGIADASQSSMHNALHIYMNGTMSQVQGSANDPIFLLHHAFVDSIFEQWLRRHRPLQEVYPEANAPIGHNRESYMVPFIPLYRNGDFFISSKDLGYDYSYLQDSDPDSFQDYIKSYLEQASRIWSWLLGAAMVGAVLTALLAGLVSLLCRHKRKQLPEEKQPLLMEKEDYHSLYQSHL", "values": [{"measurement": "protein production", "value": "failed"}]}
{"sequence": "MGNQDTIIETDNGNSDYETPQPTSFPLEHNHFGVMEDGYIKIYEYNESRNEVKLKKEYADDELELEHHHHHH", "values": [{"measurement": "protein production", "value": "not failed"}]}
{"sequence": "MFCEKAMELIRELHRAPEGQLPAFNEDGLRQVLEEMKALYEQNQSDVNEAKSGGRSDLIPTIKFRHCSLLRNRRCTVAYLYDRLLRIRALRWEYGSILPNALRFHMAAEEMEWFNNYKRSLATYMRSLGGDEGLDITQDMKPPKSLYIEVRCLKDYGEFEVDDGTSVLLKKNSQHFLPRWKCEQLIRQGVLEHILS", "values": [{"measurement": "protein production", "value": "failed"}]}
{"sequence": "MINKVLLEGQRITRSPQVKQHACGASFFLVVLLLIGGLLYSTISWMWDEQRLPLSKLVLQGDLHYVSALDVQRVLARLDHIGTFMSQDINVLQESVQSIPWVSHASIRKQWPDTIKVYLTEYQVEALWNANALLDKNGTVFYGDIARVNGEYVKLYGPDGTAPQVLKAWRDYNPKFAQLGLNISSLVLNDRRAWQIILDNGIRLELGKESLEERISRFFLLYKQLGNKAEQVSYIDLRYDTGAAVGWFPEQELTQEKNDD", "values": [{"measurement": "protein production", "value": "failed"}]}
{"sequence": "MTHNHHHQAVDNLLNVFSRASHDLTVVHSKLDKEFQQMYPANANPMKLIQRIKKLQEDVTLLKHQCLDLLSAKQDLIDKAQTTLVGNCNLIQKMNASLGESTNGDTDDALADFNQIIDEWTMQVRSRTVGETEDADKEDINKMLFSAICHTN", "values": [{"measurement": "protein production", "value": "failed"}]}
{"sequence": "MRCPGCGAAIQFDDPKKPGYIPREVFEKRLEEGKEILCQRCFRMKHYGKLEPVEFDWDFKNQLKSYLGGFDVVVWVIDIFDFEGTYREDIAEILKGKRVIYVINKIDLLPRAVTVKEIKEWVKKRIKTKNTDDIRIVSAEKNFGLTSLVKYLSRLTDKALVVGVTNVGKSSLLNKICTHENTISPFPGTTLGILKRKVKEANLYLYDTPGIMTSDRILDLLDPECQKRVLPREELSRKTFKPDNGRTIFMGGLCRFDIHFETEKNPIFLLFSSKEVTFHETRRERADELMRNRLGDLLIPPCSKTKFENFKWKRETFTLKEGEELAVAGLGWMSVRRGPFTVEVTVPDSVKLVVREALVNPKRLEHHHHHH", "values": [{"measurement": "protein production", "value": "not failed"}]}
